The record followed here is paper PMC9071465.

The stoichiometry N is a count of units in the complex or per binding partner.

The target in assay [1] is At-HIGLE (HYL-1 Interacting GIY-YIG Like Endonuclease) from Arabidopsis thaliana, full length (Arabidopsis thaliana). Briefly: SEC; Sephacryl 16/60 S-200, 20 mM Tris-HCl (pH 8.5), 5% glycerol, 5 mM beta-mercaptoethanol, 0.5 M NaCl; calibrated with gel filtration markers; oligomeric state from a standard curve. (SEC sorts molecules by how far they enter the pores of the column.)

The target in assay [2] is At-HIGLE^184-368 (C-terminal region of At-HIGLE) (Arabidopsis thaliana). Briefly: SEC; Sephacryl 16/60 S-100, 20 mM Tris-HCl (pH 8.5), 5% glycerol, 5 mM beta-mercaptoethanol, 0.5 M NaCl; calibrated with gel filtration markers; oligomeric state from a standard curve.

“At-HIGLE (HYL-1 Interacting GIY-YIG Like Endonuclease) from Arabidopsis thaliana, full length (enzyme)” gave a stoichiometry N in assay [1] of 2.

The substance “At-HIGLE^184-368 (C-terminal region of At-HIGLE) (domain or fragment)” yielded a stoichiometry N in assay [2] of 2.
